Measurements reported in article PMC6173284.

Target: His-tagged Vps5 dimer from Chaetomium thermophilum (Chaetomium thermophilum)
Experiment: SEC-MALS

**Q.** “His-tagged Vps5 dimer from Chaetomium thermophilum (natural protein)” was tested. Which stoichiometry N did it give?
**A.** Its stoichiometry N is 2.
